Experimental data: patent US7700101B2, “Reagents and method for modulating Dkk-mediated interactions” (Wyeth, priority 2001, dated 2010)
Positions count from the first letter of the chain named. Names and notes keep the numbering of the source. “Also recorded” adds a separate entry of the source. Each block holds one molecule with its values, some of them ahead of it.

Assays:
[1] = tested on: Wnt pathway (TCF-luciferase reporter); experiment: TCF-luciferase assay of LRP5 variants in U2OS cells; type: cell-based, human; conditions: for susceptibility to modulation by Dkk / activation of TCF-luciferase reporter construct: U2OS cells; for susceptibility to modulation by Dkk: in the presence of Dkk1 and Wnt1; for activation of TCF-luciferase reporter construct: in the presence of Wnt
Excerpt: Site-directed mutants of LRP5 were generated in the full-length human LRP5 cDNA using the QuikChange XL-Site-Directed Mutagenesis Kit (catalog #200516, Stratagene, La Jolla, Calif.) following the manufacturers protocol. The mutant sequences were introduced using complementary synthetic oligonucleotides:
All constructs were sequence verified to ensure that only the engineered modification was present in the gene. Once verified, each variant was functionally evaluated in the TCF-luciferase assay in U2OS cells (essentially as described in Example 7. Other functional evaluations could also be performed, such as the Xenopus embryo assay (essentially as described in Example 6), or other assays to evaluate Wnt signaling, Dkk modulation, or anabolic bone effect. Binding of these mutants to Dkk, LRP-interacting proteins, Dkk-interacting proteins, or peptide aptamers to any of the preceding could also be investigated in a variety of ways such as in a two-hybrid system (such as in yeast as described in this application), or other methods.
U2OS human osteosarcoma cells were also utilized. U2OS cells (ATCC) were seeded into 96-well plates at 30,000 cells per well in 200 ul of the growth media (McCoy's 5A) containing 10% (v/v) heat-inactivated FBS, 1X penicillin streptomycin, and 1×Glutamax-1, and incubated overnight at 37° C. The following day, the media was replaced with OptiMEM (Invitroge) and cells were transfected using […] (as described by the manufacturer, Invitrogen) with. 0.005 μg/well of LRP5, HBM, LRP6 or contoI plasmid DNA (empty vector pcDNA3.1) and either Wnt1 (0.0025 ug/well) or Wnt3a (0.0025 ug/well) plasmid DNA. In addition, the 16x-(AS) TCF-TK-firefly-luciferase (Ramesh Bhat, WHRI, Wyeth) and control TK-renilla luciferase (Promega Corp.) were co-transfected at 0.3 ug/well and 0.06 ug/well respectively in all experiments. […] In other experiments, cells were co-transfected with 0.005 μg/well of LRP5, 0.0025 ug/well of Wnt1 or Wnt3 a (using […] of a control pcDNA3.1) with LRP5-interacting aptamers (0.05 ug/well). Cells were cultured for an additional 18-20 hours at 37° C. Culture medium was removed. Cells were then lysed with 100 μl/well of 1X Passive Lysis Buffer (PLB) of Dual Luciferase Reagent kit (DLR-kit-Promega Corp.) 20 μl of the lysates were combined with LARII reagent of DLR-kit and assayed for TCF-firefly luciferase signal in Top Count (Packard) instrument. After measuring the Firefly readings, 100 μl of the “Stop and Glo” reagent of DLR kit that contains a quencher and a substrate for renilla luciferase was added into each well. Immediately the renilla luciferase reading was measured using the Top Count (Packard) Instrument. The ratios of the TCF-firefly luciferase to control renilla readings were calculated for each well and the mean ratio of triplicate or more wells was expressed in all data.

LRP5 = target: T1, LRP5 (Homo sapiens, UniProt O75197); experiment: TCF-luciferase assay in HOB-03-CE6 cells, LRP5; type: cell-based; conditions: Wnt3a, FIG. 15
T1 construct: Site-directed mutants of LRP5 were generated in the full-length human LRP5 cDNA; expressed in transfected cells; host or cells: HOB-03-CE6 osteoblastic cells; U2OS osteosarcoma cells; HEK293
Procedure: (§1) HOB-03-CE6 osteoblastic cells developed by Wyeth Ayerst (Philadelphia, Pa.) were seeded into 24-well plates at 150,000 cells per well in 1 ml of the growth media (D-MEM/F12 phenol red-free) containing 10% (v/v) heat-inactivated FBS, 1×penicillin streptomycin, and 1X Glutamax-1, and incubated overnight at 34° C. The following day, the cells were transfected using Lipofectamine 2000® (as described by the manufacturer, Invitrogen) in OptiMEM (Invitrogen) with 0.35 μg/well of LRP5, HBM, or control plasmid DNA (empty vector pcDNA3.1) and either Wnt1 or Wnt3 a plasmid DNA. Similar experiments were performed with LRP6 plasmid DNA (0.35 μg/well) or a control pEDdpc4 empty vector. […] All wells were transfected with 0.025 μg/well of CMV beta-galactosidase plasmid DNA and 0.35 μg/well 16X TCF(ASyluciferase reporter DNA (developed by Ramesh Bhat, Wyeth-Ayerst (Philadelphia, Pa.)). After 4 hours of incubation, the cells were rinsed and 1 ml of fresh growth media was added to each well. The cells were cultured overnight at 34° C., followed by a wash and a change of media. Cells were cultured for an additional 18-24 hours at 37° C. Cells were then lysed with 50 μl/well of 1X lysis buffer. The extracts were assayed for beta-galactosidase activity (Galacto Reaction Buffer Diluent & Light Emission Accelerator, Tropix) using 5 μl extract+50 μl beta-galactosidase diluent and luciferase activity (Luciferase Assay Reagent, Promega) using 20 μl extract.

HBM = target: T2, HBM (Homo sapiens, UniProt O75197, G171V); experiment: TCF-luciferase assay in HOB-03-CE6 cells, HBM; type: cell-based; conditions: Wnt3a, FIG. 15
T2 construct: Full length Zmax/LRP5 and HBM ORF cDNA; expressed in transfected cells; host or cells: HOB-03-CE6 osteoblastic cells; U2OS osteosarcoma cells; HEK293
Procedure: as §1, with “DNA.” for “DNA. Similar experiments were performed with LRP6 plasmid DNA (0.35 μg/well) or a control pEDdpc4 empty vector.”

LRP6 [2] = target: T3, LRP6 (Homo sapiens, UniProt O75581); conditions: cited from earlier work
Target sequence in this assay (O75581 20-1613, species assumed): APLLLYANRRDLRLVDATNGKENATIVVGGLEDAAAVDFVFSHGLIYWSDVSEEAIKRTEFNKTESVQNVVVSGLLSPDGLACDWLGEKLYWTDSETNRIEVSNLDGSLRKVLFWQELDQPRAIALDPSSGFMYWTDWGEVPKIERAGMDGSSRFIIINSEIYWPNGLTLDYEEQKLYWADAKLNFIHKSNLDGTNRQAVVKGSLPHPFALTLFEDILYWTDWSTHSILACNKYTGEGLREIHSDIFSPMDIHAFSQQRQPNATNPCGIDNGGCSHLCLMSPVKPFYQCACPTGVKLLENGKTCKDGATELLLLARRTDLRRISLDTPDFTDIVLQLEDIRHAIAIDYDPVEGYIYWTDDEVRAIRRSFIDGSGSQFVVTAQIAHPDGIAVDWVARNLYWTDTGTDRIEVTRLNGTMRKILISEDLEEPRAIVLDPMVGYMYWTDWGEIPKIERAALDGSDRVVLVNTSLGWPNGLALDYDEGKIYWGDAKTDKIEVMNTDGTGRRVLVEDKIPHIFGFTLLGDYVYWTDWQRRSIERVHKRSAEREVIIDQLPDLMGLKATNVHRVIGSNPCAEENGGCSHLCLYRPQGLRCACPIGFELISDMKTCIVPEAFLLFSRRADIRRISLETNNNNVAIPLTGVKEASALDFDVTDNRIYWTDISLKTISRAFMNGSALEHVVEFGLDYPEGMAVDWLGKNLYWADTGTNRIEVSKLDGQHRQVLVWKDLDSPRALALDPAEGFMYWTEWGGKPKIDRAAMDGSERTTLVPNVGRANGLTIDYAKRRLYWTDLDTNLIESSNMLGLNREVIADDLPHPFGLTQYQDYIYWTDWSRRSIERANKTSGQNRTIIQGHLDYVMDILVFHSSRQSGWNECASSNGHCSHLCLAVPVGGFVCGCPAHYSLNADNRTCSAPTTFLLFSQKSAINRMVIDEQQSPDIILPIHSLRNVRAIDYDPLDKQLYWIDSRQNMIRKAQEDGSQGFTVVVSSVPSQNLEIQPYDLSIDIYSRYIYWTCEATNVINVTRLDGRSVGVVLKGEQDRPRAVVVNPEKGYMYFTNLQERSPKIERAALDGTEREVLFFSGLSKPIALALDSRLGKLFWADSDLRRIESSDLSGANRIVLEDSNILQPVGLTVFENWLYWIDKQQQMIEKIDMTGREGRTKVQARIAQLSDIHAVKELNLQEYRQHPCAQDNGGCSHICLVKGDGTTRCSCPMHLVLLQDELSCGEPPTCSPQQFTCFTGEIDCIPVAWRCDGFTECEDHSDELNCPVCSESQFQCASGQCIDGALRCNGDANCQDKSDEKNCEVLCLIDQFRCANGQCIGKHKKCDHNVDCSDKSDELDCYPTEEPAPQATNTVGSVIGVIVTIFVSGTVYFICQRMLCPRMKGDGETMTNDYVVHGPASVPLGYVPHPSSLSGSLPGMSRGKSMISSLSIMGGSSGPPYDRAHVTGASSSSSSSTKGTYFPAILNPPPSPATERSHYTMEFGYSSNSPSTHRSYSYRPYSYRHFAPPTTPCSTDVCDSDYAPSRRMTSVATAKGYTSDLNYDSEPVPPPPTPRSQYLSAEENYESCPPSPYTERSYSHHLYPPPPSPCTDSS

LRP6 [3] = target: T3, LRP6; experiment: TCF-luciferase assay in HOB-03-CE6 cells, LRP6; type: cell-based; design: Full length LRP6 was isolated from the pED6dpc4 vector; expressed in transfected cells; host or cells: HOB-03-CE6 osteoblastic cells; U2OS osteosarcoma cells; HEK293
Target sequence in this assay (O75581 20-1613): as the sequence (O75581 20-1613, species assumed) above

endogenous LRP5/6 = experiment: Cell-based TCF reporter high-throughput assay, endogenous LRP5/6; design: species or system human; conditions: U2OS cells
Excerpt: To develop a high throughput assay, the TCF-luciferase assay described in Example 7 was modified utilizing low level expression of endogenous LRP5/6 in U2OS and HEK293 cells. […] Using U2OS (human osteosarcoma) and HEK293 (ATCC) cells, the TCF-luciferase and tk-Renilla reporter element constructs were co-transfected along with Wnt3a/1 and Dkk.

LRP5 LBD = experiment: Yeast-2 hybrid interaction trap LRP5 LBD-LexA / Gal4AD-Dkk; type: binding; conditions: FIG. 18
Excerpt: Small molecule inhibitors (or partial inhibitors) of the Dkk-LRP interaction may be an excellent osteogenic therapeutic. One way to investigate this important protein-protein interaction is using Y2H techniques substantially as described above and as is well known in the art. […] This interaction is quantitated using a reporter element known in the art, e.g., LacZ or luciferase, which is only activated when bait and prey interact. The Y2H assay is used to screen for compounds which modulate the LRP-Dkk interaction. Such a modulation would be visualized by a reduction in reporter element activation signifying a weaker or disrupted interaction, or by an enhancement of the reporter element activation signifying a stronger interaction. Thus, the Y2H assay can be used as a high-throughput screening technique to identify compounds which disrupt or enhance Dkk interaction with LRP5/LRP6/HBM, which may serve as potential therapeutics.
For example, the Interaction Trap methodology can be used as follows. […] With the LRP5LBD-LexA bait and the Gal4AD-Dkk prey, over a 20-fold activation of a lacZ reporter (under the control of a single LexA operator) was detected over the background. […] As a result, small molecules may be identified that modulate this interaction between LRP and Dkk.

canonical Wnt signaling = conditions: Semenov et al.; cited from earlier work

Chain of LRP5 LBD (as listed by the source): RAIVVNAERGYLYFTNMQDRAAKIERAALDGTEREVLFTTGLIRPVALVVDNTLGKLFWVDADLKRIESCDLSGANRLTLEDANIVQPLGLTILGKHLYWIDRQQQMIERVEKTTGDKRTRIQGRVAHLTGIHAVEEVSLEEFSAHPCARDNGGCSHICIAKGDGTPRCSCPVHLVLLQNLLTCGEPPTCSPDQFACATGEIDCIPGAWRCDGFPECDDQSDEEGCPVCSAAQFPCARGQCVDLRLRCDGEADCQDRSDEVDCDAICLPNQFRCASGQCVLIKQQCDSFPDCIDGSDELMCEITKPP
T2 sequence (O75197 32-1615 G171V): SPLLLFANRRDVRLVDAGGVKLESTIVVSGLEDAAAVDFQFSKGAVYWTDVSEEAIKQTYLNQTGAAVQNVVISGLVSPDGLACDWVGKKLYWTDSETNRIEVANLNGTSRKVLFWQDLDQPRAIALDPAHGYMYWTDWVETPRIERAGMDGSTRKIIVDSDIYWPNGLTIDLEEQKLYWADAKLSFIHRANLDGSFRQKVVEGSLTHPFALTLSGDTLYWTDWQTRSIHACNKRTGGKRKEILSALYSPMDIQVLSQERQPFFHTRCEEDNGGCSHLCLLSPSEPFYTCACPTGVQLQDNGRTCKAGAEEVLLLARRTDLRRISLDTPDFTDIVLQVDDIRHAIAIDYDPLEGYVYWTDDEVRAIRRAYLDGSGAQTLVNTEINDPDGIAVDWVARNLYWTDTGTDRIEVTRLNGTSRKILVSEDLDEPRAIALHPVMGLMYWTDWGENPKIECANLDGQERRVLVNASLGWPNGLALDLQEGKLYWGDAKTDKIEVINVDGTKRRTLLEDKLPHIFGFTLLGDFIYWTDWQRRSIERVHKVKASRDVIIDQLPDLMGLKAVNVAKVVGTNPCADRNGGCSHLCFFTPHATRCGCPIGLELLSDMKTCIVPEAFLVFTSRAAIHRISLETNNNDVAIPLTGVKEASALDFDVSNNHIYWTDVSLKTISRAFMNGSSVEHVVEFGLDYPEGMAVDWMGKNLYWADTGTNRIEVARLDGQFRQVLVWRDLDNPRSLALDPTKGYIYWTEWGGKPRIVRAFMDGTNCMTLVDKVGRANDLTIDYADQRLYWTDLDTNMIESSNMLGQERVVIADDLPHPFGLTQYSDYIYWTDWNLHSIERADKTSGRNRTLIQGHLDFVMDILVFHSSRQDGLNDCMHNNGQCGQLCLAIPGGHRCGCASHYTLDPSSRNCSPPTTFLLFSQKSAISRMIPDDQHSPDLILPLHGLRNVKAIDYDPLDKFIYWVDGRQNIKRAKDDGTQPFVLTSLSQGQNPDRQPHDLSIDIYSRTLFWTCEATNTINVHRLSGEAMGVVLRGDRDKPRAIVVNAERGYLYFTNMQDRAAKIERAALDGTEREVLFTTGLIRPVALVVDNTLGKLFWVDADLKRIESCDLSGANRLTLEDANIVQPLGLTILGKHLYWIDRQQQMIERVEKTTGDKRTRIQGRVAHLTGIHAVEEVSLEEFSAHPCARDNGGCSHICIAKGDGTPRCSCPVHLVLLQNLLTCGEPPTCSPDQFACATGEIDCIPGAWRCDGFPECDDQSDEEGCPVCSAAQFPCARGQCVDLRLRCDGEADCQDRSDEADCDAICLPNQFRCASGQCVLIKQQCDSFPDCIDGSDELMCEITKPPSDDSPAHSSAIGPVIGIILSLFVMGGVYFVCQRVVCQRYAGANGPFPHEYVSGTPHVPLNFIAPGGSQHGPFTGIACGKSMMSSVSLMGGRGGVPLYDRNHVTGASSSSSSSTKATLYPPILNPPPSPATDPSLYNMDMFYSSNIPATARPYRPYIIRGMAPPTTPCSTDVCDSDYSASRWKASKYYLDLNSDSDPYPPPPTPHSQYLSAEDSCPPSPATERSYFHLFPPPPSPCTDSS
T1 sequence (O75197 32-1615): as the sequence (O75197 32-1615 G171V) above, with V140G counted along it

Molecule: G171K: site-directed variant of human LRP5, introduces a charged side-chain
HBM effect / HBM activity [1]: demonstrated HBM activity

Molecule: G171F: site-directed variant of human LRP5 in propeller 1, introduces a ringed side-chain
HBM effect / HBM activity [1]: results in an HBM effect; also recorded: demonstrated HBM activity
susceptibility to modulation by Dkk [1]: less susceptible than LRP5
activation of TCF-luciferase reporter construct [1]: greater activation of the Wnt pathway than LRP5; also recorded: able to activate the TCF-luciferase reporter construct

Molecule: G171Q: site-directed variant of human LRP5, introduces the propeller 4 residue
HBM effect / HBM activity [1]: demonstrated HBM activity

Molecule: M282V: site-directed variant of human LRP5, accessible interior position in blade 1
HBM effect / HBM activity [1]: results in an HBM-effect; also recorded: demonstrated HBM activity
susceptibility to modulation by Dkk [1]: less susceptible than LRP5
activation of TCF-luciferase reporter construct [1]: activation of the Wnt pathway; also recorded: able to activate the TCF-luciferase reporter construct

Molecule: A214V: site-directed variant of human LRP5, position equivalent to 171 in blade 5
HBM effect / HBM activity [1]: demonstrated HBM activity

LRP6/Wnt1 mediated TCF-luciferase activity (LRP6 [3]; Wnt1, FIG. 14): had no effect
B1: Dkk-2: human Dickkopf-2, Dkk family member, full length cDNA (protein, UniProt Q9UBU2 1-259, looked up)
chain: MAALMRSKDSSCCLLLLAAVLMVESSQIGSSRAKLNSIKSSLGGETPGQAANRSAGMYQGLAFGGSKKGKNLGQAYPCSSDKECEVGRYCHSPHQGSSACMVCRRKKKRCHRDGMCCPSTRCNNGICIPVTESILTPHIPALDGTRHRDRNHGHYSNHDLGWQNLGRPHTKMSHIKGHEGDPCLRSSDCIEGFCCARHFWTKICKPVLHQGEVCTKQRKKGSHGLEIFQRCDCAKGLSCKVWKDATYSSKARLHVCQKI
modifications: full-length
notes: human Dickkopf-2, Dkk family member, full length cDNA
LRP5/Wnt3a mediated TCF-luciferase activity (LRP5): able to antagonize the TCF-luciferase activity
HBM/Wnt3a mediated TCF-luciferase activity (HBM): able to antagonize the TCF-luciferase activity
Kd (LRP6 [2]; Mao et al., classical biochemical ligand-receptor studies): 0.73 nM
LRP6/Wnt3a mediated TCF-luciferase activity (LRP6 [3]; Wnt3a, FIG. 15): able to antagonize LRP6/Wnt3a mediated TCF-luciferase activity

B2: Dkk-1-AP: Dkk-1 modified with alkaline phosphatase (protein)
chain: TLNSVLNSNAIKNLPPPLGGAAGHPGSAVSAAPGILYPGGNKYQTIDNYQPYPCAEDEECGTDEYCASPTRGGDAGVQICLACRKRRKRCMRHAMCCPGNYCKNGICVSSDQNHFRGEIEETITESFGNDHSTLDGYSRRTTLSSKMYHTKGQEGSVCLRSSDCASGLCCARHFWSKICKPVLKEGQVCTKHRRKGSHGLEIFQRCYCGEGLSCRIQKDHHQASNSSRLHTCQRH
modifications: left off: large carriers
notes: Dkk-1 modified with alkaline phosphatase
modulation of TCF signal without Wnt DNA transfection (endogenous LRP5/6; no Wnt3a/Wnt1 transfection, FIG. 21): can be modulated

B3: Dkk-1 mutant (C220A): Dkk-1 mutant where cysteine 220 was changed to alanine (protein)
chain: B2 chain with C189A
interaction with LRP5 in yeast (LRP5 LBD): interaction was reduced
interaction with LRP5 in yeast (LRP5 LBD; listed as mutant Dkk-1 (C220A)): unable to bind to LRP5
repression of Wnt3a-mediated TCF reporter signaling (endogenous LRP5/6; Wnt3a, FIG. 19): lack of TCF-reporter inhibition
LRP6 binding (LRP6 [2]; Semenov et al.): abolished LRP6 binding
repression of Wnt signaling (canonical Wnt signaling): unable to repress Wnt signaling
